Results taken from patent publication US20200069778A1, “PLANT-EXPRESSED COCAINE HYDROLASE VARIANTS OF BUTYRYLCHOL[…] METHODS OF REDUCING COCAINE-PRIMED REINSTATEMENT” (priority 2018, published 2020).

Test: Radiometric (−)-cocaine hydrolysis assay
Type: biochemical
Settings: 25° C.

B1: WT pBChE (protein, UniProt P06276 29-602, looked up)
Cholinesterase: EDDIIIATKNGKVRGMNLTVFGGTVTAFLGIPYAQPPLGRLRFKKPQSLTKWSDIWNATKYANSCCQNIDQSFPGFHGSEMWNPNTDLSEDCLYLNVWIPAPKPKNATVLIWIYGGGFQTGTSSLHVYDGKFLARVERVIVVSMNYRVGALGFLALPGNPEAPGNMGLFDQQLALQWVQKNIAAFGGNPKSVTLFGESAGAASVSLHLLSPGSHSLFTRAILQSGSFNAPWAVTSLYEARNRTLNLAKLTGCSRENETEIIKCLRNKDPQEILLNEAFVVPYGTPLSVNFGPTVDGDFLTDMPDILLELGQFKKTQILVGVNKDEGTAFLVYGAPGFSKDNNSIITRKEFQEGLKIFFPGVSEFGKESILFHYTDWVDDQRPENYREALGDVVGDYNFICPALEFTKKFSEWGNNAFFYYFEHRSSKLPWPEWMGVMHGYEIEFVFGLPLERRDNYTKAEEILSRSIVKRWANFAKYGNPNETQNNSTSWPVFKSTEQKYLTLNTESTRIMTKLRAQQCRFWTSFFPKVLEMTGNIDEAEWEWKAGFHRWNNYMMDWKNQFNDYTSKKESCVGL
modifications: plant-expressed
Q: Which Km does the source give for B1 here?
A: Its Km is 2.9 µM.

Q: What about the “kcat against (−)-cocaine” value of the same molecule?
A: Its value is 0.0433 s⁻¹.
